The chains are these.
T1: EsCas13d, nuclease-dead (Eubacterium siraeum, UniProt B0MS50, R295A;H300A;R849A;H854A)
T1 sequence: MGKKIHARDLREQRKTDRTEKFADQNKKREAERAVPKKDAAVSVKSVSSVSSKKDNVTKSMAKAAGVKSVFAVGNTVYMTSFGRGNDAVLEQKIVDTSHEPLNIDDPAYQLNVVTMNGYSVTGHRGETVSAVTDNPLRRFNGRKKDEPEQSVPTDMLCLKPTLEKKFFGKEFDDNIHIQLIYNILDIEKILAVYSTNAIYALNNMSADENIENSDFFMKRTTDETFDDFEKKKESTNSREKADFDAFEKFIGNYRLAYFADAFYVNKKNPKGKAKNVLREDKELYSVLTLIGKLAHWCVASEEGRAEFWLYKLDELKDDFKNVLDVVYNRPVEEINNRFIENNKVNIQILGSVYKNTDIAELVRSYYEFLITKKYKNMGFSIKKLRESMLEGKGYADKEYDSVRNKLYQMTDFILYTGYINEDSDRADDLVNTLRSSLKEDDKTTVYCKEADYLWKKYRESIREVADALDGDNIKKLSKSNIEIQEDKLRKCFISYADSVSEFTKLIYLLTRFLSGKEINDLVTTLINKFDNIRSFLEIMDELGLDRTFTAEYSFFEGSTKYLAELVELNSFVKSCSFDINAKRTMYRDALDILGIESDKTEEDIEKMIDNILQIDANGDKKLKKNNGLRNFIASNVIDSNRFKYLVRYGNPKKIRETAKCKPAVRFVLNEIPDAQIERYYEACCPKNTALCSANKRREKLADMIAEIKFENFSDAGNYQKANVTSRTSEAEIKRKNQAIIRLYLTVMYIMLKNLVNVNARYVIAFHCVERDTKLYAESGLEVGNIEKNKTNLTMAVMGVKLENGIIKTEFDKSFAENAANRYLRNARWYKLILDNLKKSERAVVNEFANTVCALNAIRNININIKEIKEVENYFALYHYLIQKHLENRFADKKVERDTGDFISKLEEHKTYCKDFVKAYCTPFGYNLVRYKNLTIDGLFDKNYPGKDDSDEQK

B1: target 1 insC 3' of 8,insU 3' of 4 (mixed)
RNA 1: CACCCGUGCAAAAAUGCAGGGGUCUAAAACUGAGCGGAUAACCUCUCUAUGG
RNA 2: GGGAAUGGAUCCACAUCUACGAAUUCGUACCAUAGAGAGGUUAUCCCGCUUCACCGAGAUCGGAAGAGCACACGU
B2: target 1 insG 3' of 22,insA 3' of 11 (mixed)
RNA 1: B1 RNA 1
RNA 2: GGGAAUGGAUCCACAUCUACGAAUUCGUACGCAUAGAGAGGUAUAUCCGCUCACCGAGAUCGGAAGAGCACACGU
B3: target 1 del15,del22 (mixed)
RNA 1: B1 RNA 1
RNA 2: GGGAAUGGAUCCACAUCUACGAAUUCGUACAUAGAAGGUUAUCCGCUCACCGAGAUCGGAAGAGCACACGU
B4: target 1 insU 3' of 12,insA 3' of 3 (mixed)
RNA 1: B1 RNA 1
RNA 2: B1 RNA 2 with A43U, U44A, C45U, U51A
B5: target 1 insU 3' of 21,insA 3' of 8 (mixed)
RNA 1: B1 RNA 1
RNA 2: B2 RNA 2 with G31C, C32U, A43U, U44A, A45U, U46A
B6: target 1 U8C,C22U (mixed)
RNA 1: B1 RNA 1
RNA 2: GGGAAUGGAUCCACAUCUACGAAUUCGUAUCAUAGAGAGGUUACCCGCUCACCGAGAUCGGAAGAGCACACGU
B7: target 1 C6G (mixed)
RNA 1: B1 RNA 1
RNA 2: B6 RNA 2 with U30C, C44U, C46G
B8: target 1 del3 (mixed)
RNA 1: B1 RNA 1
RNA 2: GGGAAUGGAUCCACAUCUACGAAUUCGUACCAUAGAGAGGUUAUCCGCCACCGAGAUCGGAAGAGCACACGU
B9: target 1 U3G,C4A (mixed)
RNA 1: B1 RNA 1
RNA 2: B6 RNA 2 with U30C, C44U, C48A, U49G
B10: target 1 A1U,C4G (mixed)
RNA 1: B1 RNA 1
RNA 2: B6 RNA 2 with U30C, C44U, C48G, A51U
B11: target 1 U10G,A20C (mixed)
RNA 1: B1 RNA 1
RNA 2: B6 RNA 2 with U30C, A32C, U42G, C44U
B12: target 1 insC 3' of 15,insC 3' of 10 (mixed)
RNA 1: B1 RNA 1
RNA 2: GGGAAUGGAUCCACAUCUACGAAUUCGUACCAUAGAGCAGGUUCAUCCGCUCACCGAGAUCGGAAGAGCACACGU
B13: target 1 U11G,C21U (mixed)
RNA 1: B1 RNA 1
RNA 2: B6 RNA 2 with U30C, C31U, U41G, C44U
B14: target 1 C4G (mixed)
RNA 1: B1 RNA 1
RNA 2: B6 RNA 2 with U30C, C44U, C48G
B15: target 1 del8 (mixed)
RNA 1: B1 RNA 1
RNA 2: B8 RNA 2 with U44C, C46G, G47C, C48U
B16: target 1 insC 3' of 14,insG 3' of 1 (mixed)
RNA 1: B1 RNA 1
RNA 2: B1 RNA 2 with G39C, U41G, A43U, U44A, C45U, U51C, C52A, A53G
B17: target 1 insC 3' of 14,insC 3' of 1 (mixed)
RNA 1: B1 RNA 1
RNA 2: B1 RNA 2 with G39C, U41G, A43U, U44A, C45U, U51C, C52A, A53C
B18: target 1 insG 3' of 8,insA 3' of 8 (mixed)
RNA 1: B1 RNA 1
RNA 2: B1 RNA 2 with C45G, C46A, G48C, C49G, U50C
B19: target 1 U3G,U19G (mixed)
RNA 1: B1 RNA 1
RNA 2: B6 RNA 2 with U30C, U33G, C44U, U49G
B20: target 1 complement block 5-9 (mixed)
RNA 1: B1 RNA 1
RNA 2: B6 RNA 2 with U30C, A43U, C44A, C45G, C46G, G47C
B21: target 1 del1,del7 (mixed)
RNA 1: B1 RNA 1
RNA 2: GGGAAUGGAUCCACAUCUACGAAUUCGUACCAUAGAGAGGUUAUCGCUCCCGAGAUCGGAAGAGCACACGU
B22: target 1 C2U,U8G (mixed)
RNA 1: B1 RNA 1
RNA 2: B6 RNA 2 with U30C, C44G, C50U
B23: target 1 A1C,C6G (mixed)
RNA 1: B1 RNA 1
RNA 2: B6 RNA 2 with U30C, C44U, C46G, A51C
B24: target 1 G17A,U19G (mixed)
RNA 1: B1 RNA 1
RNA 2: B6 RNA 2 with U30C, U33G, G35A, C44U
B25: target 1 A1G,C4G (mixed)
RNA 1: B1 RNA 1
RNA 2: B6 RNA 2 with U30C, C44U, C48G, A51G
B26: target 1 U8C,U19A (mixed)
RNA 1: B1 RNA 1
RNA 2: B6 RNA 2 with U30C, U33A
B27: target 1 del2,del7 (mixed)
RNA 1: B1 RNA 1
RNA 2: B21 RNA 2 with C49A
B28: target 1 A9C,U10C (mixed)
RNA 1: B1 RNA 1
RNA 2: B6 RNA 2 with U30C, U42C, A43C, C44U
B29: target 1 insC 3' of 14,insU 3' of 1 (mixed)
RNA 1: B1 RNA 1
RNA 2: B1 RNA 2 with G39C, U41G, A43U, U44A, C45U, U51C, C52A, A53U
B30: target 1 insU 3' of 6,insC 3' of 5 (mixed)
RNA 1: B1 RNA 1
RNA 2: B1 RNA 2 with C47U, U50C
B31: target 1 A16C,G17C (mixed)
RNA 1: B1 RNA 1
RNA 2: B6 RNA 2 with U30C, G35C, A36C, C44U
B32: target 1 A1C,C4G (mixed)
RNA 1: B1 RNA 1
RNA 2: B6 RNA 2 with U30C, C44U, C48G, A51C

The source of these data is PMC10786891, “Massively parallel profiling of RNA-targeting CRISPR-Cas13d”.

Numbering of substitutions follows the chain as printed. Names and notes keep the numbering of the source.

The target in this series is T1, EsCas13d, nuclease-dead. The series is described as follows: crRNA (strand 1, pre-loaded); Mg2+; 40 mM Tris-HCl pH 7.5, 150 mM NaCl, 6 mM MgCl2, 1 mM DTT, 0.1% Tween-20, 0.2 mg/ml BSA; 25 C; 10 min per concentration, then washed. The settings on record: tags: His6-TwinStrep-SUMO cleaved; N-terminal SNAP kept (SNAP-Surface 488); label: 3' end held by stalled T7 RNA polymerase.
The term Kd denotes the constant that tells how readily two partners part at equilibrium. Read a high Kd as weaker binding. For B1, the Kd was determined as 12.2 ± 1 nM.

For the molecule B2, binding was put at a Kd of 33 ± 4 nM.

Regarding B3, the equilibrium dissociation constant (Kd) is 54 ± 23 nM.

Turning to B4, the affinity, expressed as Kd, was 5.8 ± 0.4 nM.

For the molecule B5, binding was characterised by a dissociation constant (Kd) of 48 ± 4 nM.

B6 displayed a Kd of 28 ± 4 nM. This Kd is about 1.7-fold lower than that of the molecule before.

In turn, B7 displayed a Kd of 8.37 ± 0.31 nM.

Consider B8, for which the Kd worked out at 28 ± 5 nM.

As for B9, the dissociation constant Kd was 4.19 ± 0.3 nM.

For the molecule B10, binding was characterised by a dissociation constant (Kd) of 6.11 ± 0.25 nM. This Kd and that of the molecule before are within 1.5-fold of each other.

B11 had a Kd of 76 ± 29 nM.

In turn, B12 showed a dissociation constant Kd of 17.3 ± 1.1 nM.

Regarding B13, the Kd was determined as 9.4 ± 0.5 nM.

B14: the Kd is 5.3 ± 0.8 nM.

As for B15, binding was put at a Kd of 10.5 ± 0.6 nM.

The molecule B16 showed a Kd of 50 ± 12 nM. This Kd is about 4.8-fold higher than that of the molecule before.

In turn, B17 registered a Kd of 50 ± 11 nM.

Molecule B18 registered a Kd of 27.2 ± 1.4 nM.

Consider B19, for which binding was put at a Kd of 35.9 ± 2.7 nM.

Turning to B20, the Kd stood at 17.2 ± 0.7 nM. This Kd is about 2.1-fold lower than that of the molecule before.

B21 yielded a Kd of 9.7 ± 0.6 nM. This Kd lies about 1.8-fold lower than the previous one.

As for B22, the Kd worked out at 17.1 ± 0.9 nM.

B23 returned a Kd of 12.1 ± 1.1 nM.

In turn, B24 displayed a dissociation constant Kd of 51 ± 6 nM.

With B25, the affinity, expressed as Kd, was 5.2 ± 0.34 nM.

B26: the affinity, expressed as Kd, was 59 ± 9 nM.

The molecule B27 showed a Kd of 6.62 ± 0.24 nM.

The molecule B28 displayed a Kd of 15.1 ± 1.5 nM.

For B29, the Kd was around 50 nM.

B30 gave a dissociation constant (Kd) of 13.9 ± 0.8 nM.

On to B31, for which the Kd was around 100 nM.

Molecule B32 yielded a Kd of 10.7 ± 1 nM.
